In PMC5915575:
Changes are numbered by the printed parent chain.

Columns and labels:
Conditions in all cases: EMSA: 10 mM Tris-HCl pH 7.5, 1 mM EDTA, 50 mM NaCl, 5% glycerol, 30 min room temperature, 10 pmol DNA, 0-18 ug protein, 5% native PAGE at 4 °C; BLI: PBS pH …
[1] = tested on: T1, SigB(Q225P) Q224P (Staphylococcus aureus (strain of the cloned gene not stated; XQW or Newman-SigB(Q225P)?)), ORF:92324cdd; assay: EMSA
T1 sequence: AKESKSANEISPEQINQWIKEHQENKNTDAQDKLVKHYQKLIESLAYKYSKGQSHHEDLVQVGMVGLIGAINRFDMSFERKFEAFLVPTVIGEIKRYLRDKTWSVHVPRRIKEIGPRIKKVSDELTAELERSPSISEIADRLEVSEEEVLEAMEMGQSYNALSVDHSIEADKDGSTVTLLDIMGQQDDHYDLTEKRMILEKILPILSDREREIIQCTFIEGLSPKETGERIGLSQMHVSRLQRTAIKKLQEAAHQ

[2] = tested on: T2, SigB (Staphylococcus aureus (strain of the cloned gene not stated; Newman or XQ?)), ORF:92324cdd; assay: EMSA
T2 sequence: T1 sequence with P224Q

[3] = tested on: SigB (Staphylococcus aureus (strain of the cloned gene not stated; Newman or XQ?)); assay: BLI
[4] = tested on: SigB(Q225P) (Staphylococcus aureus (strain of the cloned gene not stated; XQW or Newman-SigB(Q225P)?)); assay: BLI

Substance	binding [1]	binding [2]	Kd [3]	Kd [4]
ACGCATAGGGACTTCGTGACCATTTACAGTCACAACTTTACTTAAGTTAATAAGTGTTAATTCATCAAACGACAGTTGTTCAACTGGTTGATGATGGTATTTCTTCATTCTTGTAAGTAAATTATTAATACGTAAAACGAGTTCCCTTGGACTAAATGGTTTTTTGACATAGTCATCTGCACCTAAAGTTAAGGCG (double strand) [saeR coding region fragment]	no binding	no binding	–	–
biotin-labeled nuc promoter (BLI)	–	–	113 nM	273 nM
